Consider three substances from publication PMC7701066.

Experiment [1] addresses FLAG-tagged wild-type central Reelin fragment (Reelin repeats 3–6), Fc removed (UniProt Q60841). Kind of experiment: SEC; Superose 6 Increase 10/300 GL, A280 traces of heterodimer, FLAG-WT homodimer and His6-K2467A homodimer. (SEC sorts molecules by how far they enter the pores of the column.)
Experiment [2] concerns the target His6-tagged K2467A mutant central Reelin fragment (Reelin repeats 3–6), Fc removed (UniProt Q60841). The description is as above.
Experiment [3] has as its target Fc-fused Reelin heterodimer (FLAG-WT / His6-K2467A central fragment, Fc retained) (UniProt Q60841). Put plainly: BLI; BLItz; Fc-fused heterodimer on a Protein A biosensor; dilution series (11 concentrations) of ecto-VLDLR; 20 mM Hepes pH 7.4, 150 mM NaCl, 1 mM CaCl2, 0.2% Tween20, 0.1% BSA; association 45 s, dissociation 60 s without CaCl2 and with 1 mM EDTA; maximum responses fitted to one site specific binding; triplicate. In general terms: BLI is a label-free optical method that tracks binding on a fibre tip over time.

A word on the stoichiometry N: it is the number of molecules, sites or subunits per partner or assembly. By Kd is commonly meant the equilibrium constant for the complex coming apart. Lower therefore signals a tighter complex.

In experiment [1], “FLAG-tagged wild-type central Reelin fragment (Reelin repeats 3–6), Fc removed (from UniProt Q60841 27-3461) (domain or fragment)” came in with a stoichiometry N of 2.
The substance “His6-tagged K2467A mutant central Reelin fragment (Reelin repeats 3–6), Fc removed (from UniProt Q60841 27-3461) (domain or fragment)” had a stoichiometry N in experiment [2] of 2.
“purified extracellular domain of VLDLR (very-low density lipoprotein receptor) (from UniProt P98155 28-797)” showed a Kd in experiment [3] of 129 nM.
